From PMC13430412

Experiments:
[1] = biological target: Strep-tagged Rab7A (Q67L) (human) (UniProt P51149); assay: pull-down; Strep-Rab7A(Q67L) and FLAG-tagged VPS13C constructs co-expressed in Expi293F; lysate (buffer A with 1 mM GTP, 2 mM MgCl2) on Strep-Tactin XT resin, eluted with biotin; SDS-PAGE with Coomassie and/or anti-FLAG western blot
[2] = biological target: Rab7A(Q67L)-6xHis (human) (UniProt P51149); assay: liposome co-flotation; purified VPS13C constructs with SUVs (5% DGS-NTA) bearing His-tagged protein, 1 mM GTP, 2 mM Mg2+, room temperature 20 min; OptiPrep gradient, top fraction by SDS-PAGE
Rab7A(Q67L)-6xHis (human), sequence (P51149 whole entry Q67L): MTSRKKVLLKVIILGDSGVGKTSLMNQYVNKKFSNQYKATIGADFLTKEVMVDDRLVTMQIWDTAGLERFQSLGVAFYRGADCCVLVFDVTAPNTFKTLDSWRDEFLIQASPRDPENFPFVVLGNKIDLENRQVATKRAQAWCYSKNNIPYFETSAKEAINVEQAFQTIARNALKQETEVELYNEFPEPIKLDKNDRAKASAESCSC

Strep-tagged Rab7A (Q67L) (human), sequence (P51149 whole entry Q67L): as above

Row | Substance | fraction of total overexpressed VPS13 retained [1] [%] | fraction co-floated with SUVs bearing His-tagged Rab7A [2] [%]
1 | VPS13C-3XFLAG (full-length human VPS13C with a C-terminal 3xFLAG tag), Q709C8 1-3753 | 5 | –
2 | VPS13C-ΔATG2C-3xFLAG, Q709C8 1-3753 | – | > 80
